# Assay results from publication PMC4641155 (Molecular Imaging and Biology, 2015).
# Where “and” joins values, the source holds several entries; their conditions need not be identical. Equal entries are not always repeated. Where two headings read alike, the source gives them in different places.
# Assays:
# [1] = cited from earlier work
# [2] = Human residence time estimates scaled from mouse μSPECT time-activity curves; assay type: in vivo, human (extrapolated from mouse); settings: scaled from mouse μSPECT TACs, n = 3 non-purified, n = 6 purified
# Text: (§1) Volumes of interest (VOIs) were manually drawn on the μSPECT-CT images using PMOD v3.3 (PMOD Technologies, Switzerland) to delineate the regions with distinct SPECT time-activity pattern: heart, liver, kidney, and urinary bladder, as well as whole-body. The average organ activity per volume was obtained from the co-registered μSPECT images and the non-decay corrected time activity curves (TACs) were extracted for each target organ. In order to relate the scanner units (counts/pixel) to radioactivity concentration (kilobecquerel per cubic centimeter), a scanner calibration factor was estimated by scanning a syringe with a known concentration of Tc-99m. TACs for each organ, as well as the TACs representing the activity in the remainder of the body, were fitted by a single exponential decaying function, which was then integrated to obtain the total number of disintegrations (residence time) within these regions. In order to predict human dosimetry using animal data, interspecies extrapolation is necessary. Thus, the residence times (R) were scaled to human values according to the following formula [21]: R/gorganmouse⋅kgTBweightmouse⋅gorgan/kgTBweighthuman=Rhuman
# (§2) The human organ and body weight values from the standard adult male phantom taken into account are implemented in the internal dosimetry software (OLINDA/EXM v1.1) and are assumed to be constant across individuals. The body weight and organ masses for the individual mice were obtained post-mortem. For the bladder model, the fraction leaving the body via the urinary excretion system (f) and the biological half-life of the excretion (t1/2) were estimated by fitting a first-order linear system to the sum of activity in the bladder and the activity that had been excreted (calculated as total injected activity minus total body activity): y=f1−expln2/t1/2t
# [3] = Projected human organ absorbed doses and effective dose (OLINDA/EXM); assay type: in vivo, human (extrapolated from mouse); settings: OLINDA/EXM v1.1, adult male model, 2-h voiding, from mouse data
# Text: as §1, §2
# Projected human absorbed doses to various organs and the effective doses (ED) were then computed using the aforementioned dosimetry software (weighting factors from International Commission on Radiological Protection 60), with the human residence times as input, using the standard adult male model and the dynamic voiding bladder model (2-h voiding interval).
# [4] = Bladder model fit of urinary excretion; assay type: in vivo, CD1−/− nude female mice; settings: first-order fit of bladder plus excreted activity
# Text: as §2
# COLO205 tumors [5] = assay: Ex vivo histology of tumors: cleaved caspase-3 and TUNEL; assay type: in vivo, nude mice; settings: irinotecan-treated tumors; three whole sections, ×400; n = 6; mean ± SEM
# COLO205 cells = assay: Muse Annexin V & Dead Cell and Caspase 3/7 assays in irinotecan-treated cells; assay type: cell-based, human
# COLO205 tumors [6] = tested on: COLO205 tumors
# caspase-3/7 = settings: cited from earlier work
# Text: Molecular imaging of cell death has gained interest in oncology for monitoring tumor response to cancer therapy. Radiolabeled annexin-V was the first cell death-specific probe to be evaluated clinically. The exposure of membrane aminophospholipids such as PS and PE in the extracellular milieu provides surrogate markers for detecting cell death. PE presents one of the most abundant targets in the membrane bilayer, only preceded by phosphatidylcholine. […] Other ...
# [7] = Dynamic/static whole-body μSPECT-CT biodistribution in healthy mice; assay type: in vivo; settings: female, CD1−/− nude, mouse, kidney, iv, 37 MBq, total radioactivity, 37 MBq i.v., 4 h p.i., mean ± SEM, n = 3 non-purified, n = 6 purified, read-out: renal activity (renal excretion)
# [8] = In vivo tumor uptake by μSPECT-CT in COLO205 tumor-bearing mice; design: species or system nude mice; settings: female, nude, mouse, bone marrow (lumbar vertebrae and sacrum), iv, 37 MBq, total radioactivity, lumbar vertebrae and sacrum, μSPECT 4 h p.i., 37 MBq i.v.
# Procedure: Irinotecan was administered by intra-peritoneal (i.p.) injection (80 mg/kg) three times in 1 week every other day (n = 3).
compound,measurement,setting,value
"[^99mTc]HYNIC-annexin V: radiolabeled human recombinant annexin V, apoptosis imaging agent",mean effective dose,[1]; in vivo,0.011 mSv/MBq
CC(C)[C@@H]1NC(=O)[C@H](Cc2ccccc2)NC(=O)[C@@H]2NC(=O)[C@H](Cc3ccccc3)NC(=O)[C@@H]3CCCN3C(=O)CNC(=O)[C@H](Cc3ccccc3)NC(=O)[C@@H]3CNCCCC[C@@H](C(=O)O)NC(=O)[C@@H]4NC(=O)[C@H](CC(N)=O)NC(=O)CNC(=O)[C@H]([C@@H](O)C(=O)O)NC(=O)[C@H](CSC[C@@H](NC(=O)[C@H](CCC(N)=O)NC(=O)[C@H](CCCCNC(=O)c5ccc(NN)nc5)NC(=O)[C@@H](N)CS[C@H]4C)C(=O)N[C@@H](CS[C@H]2C)C(=O)N3)NC1=O [non-purified [^99mTc]duramycin] [metal not drawn],"Mean human residence time, heart contents",[2],0.0244 h
same,"Mean human residence time, kidneys",[2],0.13 h
same,"Mean human residence time, liver",[2],1.02 h
same,"Mean human residence time, remaining body",[2],3.41 h
same,"Mean human residence time, urinary bladder contents",[2],0.369 h
same,"Mean human absorbed dose, total body",[3],2.52 × 10^−3 mGy/MBq
same,"Mean human organ absorbed dose, LLI wall",[3],3.01 × 10^−3 mGy/MBq
same,"Mean human organ absorbed dose, ULI wall",[3],3.10 × 10^−3 mGy/MBq
same,"Mean human organ absorbed dose, adrenals",[3],3.90 × 10^−3 mGy/MBq
same,"Mean human organ absorbed dose, brain",[3],1.54 × 10^−3 mGy/MBq
same,"Mean human organ absorbed dose, breasts",[3],1.51 × 10^−3 mGy/MBq
same,"Mean human organ absorbed dose, gallbladder wall",[3],5.38 × 10^−3 mGy/MBq
same,"Mean human organ absorbed dose, heart wall",[3],3.12 × 10^−3 mGy/MBq
same,"Mean human organ absorbed dose, kidneys",[3],8.45 × 10^−3 mGy/MBq
same,"Mean human organ absorbed dose, liver",[3],1.27 × 10^−2 ± 5.97 × 10^−3 mGy/MBq and 1.27 × 10 ^−2 mGy/MBq
same,"Mean human organ absorbed dose, lungs",[3],2.52 × 10^−3 mGy/MBq
same,"Mean human organ absorbed dose, muscle",[3],2.12 × 10^−3 mGy/MBq
same,"Mean human organ absorbed dose, osteogenic cells",[3],5.51 × 10^−3 mGy/MBq
same,"Mean human organ absorbed dose, ovaries",[3],3.15 × 10^−3 mGy/MBq
same,"Mean human organ absorbed dose, pancreas",[3],3.79 × 10^−3 mGy/MBq
same,"Mean human organ absorbed dose, red marrow",[3],2.16 × 10^−3 mGy/MBq
same,"Mean human organ absorbed dose, skin",[3],1.34 × 10^−3 mGy/MBq
same,"Mean human organ absorbed dose, small intestine",[3],3.01 × 10^−3 mGy/MBq
same,"Mean human organ absorbed dose, spleen",[3],2.48 × 10^−3 mGy/MBq
same,"Mean human organ absorbed dose, stomach wall",[3],2.63 × 10^−3 mGy/MBq
same,"Mean human organ absorbed dose, testes",[3],2.11 × 10^−3 mGy/MBq
same,"Mean human organ absorbed dose, thymus",[3],2.03 × 10^−3 mGy/MBq
same,"Mean human organ absorbed dose, thyroid",[3],1.87 × 10^−3 mGy/MBq
same,"Mean human organ absorbed dose, urinary bladder wall",[3],1.66 × 10^−2 ± 4.55 × 10^−3 mGy/MBq and 1.66 × 10 ^−2 mGy/MBq
same,"Mean human organ absorbed dose, uterus",[3],4.05 × 10^−3 mGy/MBq
same,"f, mean fraction leaving the body via the urinary excretion system",[4],0.519
same,"t 1/2, mean biological half-life of the excretion",[4],2.950 h
CCc1c2c(nc3ccc(OC(=O)N4CCC(N5CCCCC5)CC4)cc13)-c1cc3c(c(=O)n1C2)COC(=O)[C@]3(O)CC [irinotecan],number of CC3-positive cells,COLO205 tumors [5],9.5 ± 1.1
same,number of TUNEL-positive cells,COLO205 tumors [5],10.5 ± 1.6
same,level of cell necrosis,"COLO205 cells; irinotecan 0.43, 4.3, 43 μM, 40 h, Muse assays",did not result in an increased level of cell necrosis
same,apoptosis levels,"COLO205 cells; irinotecan treatment 40 h, annexin-V binding and effector caspase activation",increase in apoptosis levels
same,overall toxicity with respect to body weight loss,"COLO205 tumors [6]; 80 mg/kg irinotecan, data not shown",No overall toxicity
same,BLI signal change after treatment,"COLO205 tumors [6]; bioluminescence imaging after vs before treatment, irinotecan 80 mg/kg i.p.",0.75 ± 0.28
same,tumor growth inhibition,"COLO205 tumors [6]; day 5, irinotecan 80 mg/kg i.p. three times in 1 week, vs vehicle",34.4 ± 6.9%
O=C1C(=O)N(Cc2cn(CC[18F])nn2)c2ccc(S(=O)(=O)N3CCCC3COc3ccc(F)cc3F)cc21 (stereo not drawn) [[^18F]ICMT11],binding affinity for caspase-3/7,caspase-3/7,nanomolar
same,mean effective dose,[1],0.025 mSv/MBq
"CC(C)[C@@H]1NC(=O)[C@H](Cc2ccccc2)NC(=O)[C@@H]2NC(=O)[C@H](Cc3ccccc3)NC(=O)[C@@H]3CCCN3C(=O)CNC(=O)[C@H](Cc3ccccc3)NC(=O)[C@@H]3CNCCCC[C@@H](C(=O)O)NC(=O)[C@@H]4NC(=O)[C@H](CC(N)=O)NC(=O)CNC(=O)[C@H]([C@@H](O)C(=O)O)NC(=O)[C@H](CSC[C@@H](NC(=O)[C@H](CCC(N)=O)NC(=O)[C@H](CCCCNC(=O)c5ccc(NN)nc5)NC(=O)[C@@H](N)CS[C@H]4C)C(=O)N[C@@H](CS[C@H]2C)C(=O)N3)NC1=O [purified [^99mTc]duramycin, metal not drawn]",tissue uptake per volume at 4 h,[7],6.82 ± 0.41 %ID/mL
same,SUV at 4 h,[8]; irinotecan-treated mice,0.12 ± 0.02 SUV
same,SUV at 4 h,[8]; vehicle-treated mice,0.11 ± 0.01 SUV
